Reference: paper PMC8631942 (eLife, 2021)

Columns and labels:
[1] = target: T1, His10-PD-1^ICD PD-1^FY, pre-phosphorylated (human, UniProt Q15116 194-288, Y223F, pre-phosphorylated with Fyn; the only tyrosine is in the ITSM (Y248)); test: SPR; OpenSPR (Nicoya); pre-phosphorylated His10-tagged PD-1 or BTLA ICD immobilised on a Ni sensor chip (about 1500 RU); SH2 injected at 20-1000 nM, 20 μl/min; 20 mM HEPES, 150 mM NaCl, 5 mM imidazole, 0.05% Tween-20, 10% glycerol, pH 7.5; equilibrium analysis (Evaluate EC50, TraceDrawer); conditions: both partners purified
T1 construct: Monomeric fraction of the gel filtration was used; also called PD-1-ITSM; phosphorylated PD-1-ITSM; source: E. coli (pET28A), purified (Ni-NTA, gel filtration); phosphorylated with purified Fyn; not shown: His10, N-terminal, kept
T1 sequence (looked up): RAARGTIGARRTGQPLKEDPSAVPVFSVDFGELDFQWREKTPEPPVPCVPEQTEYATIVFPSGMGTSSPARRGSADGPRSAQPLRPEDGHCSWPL

[2] = target: T2, His10-BTLA^ICD BTLA^FFFY, pre-phosphorylated (human, UniProt Q7Z6A9 190-289, Y226F | Y243F | Y257F, pre-phosphorylated with Fyn; lone tyrosine (Y282) in the ITSM); test: as above; conditions: both partners purified
T2 construct: BTLA intracellular domain, human, aa 190-289; triple-tyrosine mutant; Monomeric fraction of the gel filtration was used; also called BTLA-ITSM; source: E. coli (pET28A), purified (Ni-NTA, gel filtration); phosphorylated with purified Fyn; not shown: His10, N-terminal, kept
T2 sequence (looked up): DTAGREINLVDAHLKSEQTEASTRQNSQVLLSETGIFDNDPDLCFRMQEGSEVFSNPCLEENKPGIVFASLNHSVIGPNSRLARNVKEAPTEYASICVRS

- Kd [1]: 1700 nM
- Kd [2]: 860 nM
B1: SNAP-SHP1-cSH2 (domain or fragment)
chain: WYHGHMSGGQAETLLQAKGEPWTFLVRESLSQPGDFVLSVLSDQPKAGPGSPLRVTHIKVMCEGGRYTVGGLETFDSLTDLVEHFKKTGIEEASGAFVYLRQPY
